Laboratory results from paper PMC11804868.

Key:
[1] = target: DEBSIII TE wild type (thioesterase domain of the erythromycin polyketide synthase DEBSIII) (Saccharopolyspora erythrea); experiment: SEC
[2] = target: TylG5 TE wild type (thioesterase domain of the tylosin polyketide synthase TylG5) (Streptomyces fradiae); experiment: SEC

| stoichiometry N [1] | stoichiometry N [2] | Substance |
| --- | --- | --- |
| 2 |  | DEBSIII TE wild type (thioesterase domain of the erythromycin polyketide synthase DEBSIII) (domain or fragment) |
|  | 2 | TylG5 TE wild type (thioesterase domain of the tylosin polyketide synthase TylG5) (domain or fragment) |
